Reference: patent publication EP4592315A1

What was measured:
human FcγRIIb (human) = human FcγRIIb (human) (UniProt P31994); assay: flow cytometry on CHOS-hCD32b cells (overexpressing human FcγRIIb), anti-human IgG-Fc PE
[1] = molecular target: FcRs expressed by THP-1 cells; assay: flow cytometry on THP-1 cells (self-expressing FcRs), anti-human IgG-Fc PE

Sequence of human FcγRIIb (human) (P31994 43-310): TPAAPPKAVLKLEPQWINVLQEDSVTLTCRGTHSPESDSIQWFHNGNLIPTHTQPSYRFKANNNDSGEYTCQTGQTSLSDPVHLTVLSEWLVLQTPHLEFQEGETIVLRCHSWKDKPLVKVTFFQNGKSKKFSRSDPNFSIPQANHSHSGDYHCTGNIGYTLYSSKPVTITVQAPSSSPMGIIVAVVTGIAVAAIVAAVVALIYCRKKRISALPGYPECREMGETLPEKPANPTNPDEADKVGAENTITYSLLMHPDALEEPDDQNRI

Substance	EC50 (human FcγRIIb (human))	EC50 [1]
Pertuzumab (antibody)	1.35 nM	0.716 nM
Trastuzumab (antibody)		0.731 nM
Urelumab (antibody)		0.462 nM
